This note sets out measurements from patent publication US20040167074A1, “Therapeutic applications of mFLINT polypeptides” (priority 1998, published 2004).

Series [1] has as its system mrecFas. The experiment in a line: Baseline Fas-FasLigand interaction ELISA. To be noted: mrecFas 100 ng adsorbed. It is filed as binding. As to the method:
First a baseline experiment was done for the Fas-FasLigand interaction in vitro. Unless otherwise indicated, all washing steps use TBST (Tris Buffer Saline with Tween 20 from SIGMA) and were done 3 to 6 times.
mrecFas (100 ng) was adsorbed on to ELISA plate. Then the plate was is blocked by TBST plus 0.1% Gelatine. […] After washing the plate 6 times, anti-mouse-Abs-HRP (3000 dilution, Bio-Rad) was added to the wells. After washings three times, visualization enzymatic reaction using ABTS as a substrate was performed. Unless otherwise noted, an ELISA reader commercialized by Molecular Devices Corp. (Menlo Park, Calif.) was used.
(In general: An ELISA detects its analyte on a solid surface through an enzyme-linked reagent.)

Series [2] deals with bone marrow cells. The series can be described thus: Viable cell count of bone marrow cells from 5-FU treated mice after cytokine expansion. It counts as cell-based, mouse. The conditions noted are these: FIG. 10; 3 days with SCF and IL-6; mFLINT 1 ug/ml, anti-FasL 1 ug/ml, FasL 0.15 ug/ml; control 3,300. The text has this: Following a 3 day in vitro expansion period with cytokines, viable cells are counted and used to set up a CFU assay. If mFLINT or anti-FasL antibody protects progenitor cells from apoptosis, one would expect a greater number of colonies in these groups for the CFU assay. […] The values were: control cells: 3,300; FasL-treated cells: 3,000; anti-FasL-treated cells: 4,200; mFLINT-treated cells: 4,900.

Series [3] relates to Jurkat cells. The series can be described thus: Recombinant FasL induced Jurkat cell apoptosis (Annexin V/PI, FACS). It counts as cell-based. To be noted: Jurkat + inducer alone 200 ng/ml, overnight. As to the method: One milliliter of 1×10^6 cell/ml was added into each well of 24 well tissue culture plate and treated with following reagents: soluble Fas L (200 ng), Fas L plus 1 ug mFLINT, Fas L plus 1 ug OPG2-Fc, Trail (200 ng), Trail plus 1 ug mFLINT. Cells were incubated overnight at 37° C. and then stained with Annexin V and PI.

The target of series [4] is hFasLigand (Flag-tagged) (human) (UniProt P48023). The series can be described thus: competition ELISA: mrecFas 100 ng adsorbed, hFasLigand-Flag 30 ng, FLINT 10 ng; signal is FasL bound to Fas.
Series [5] has the same target. The series can be described thus: competition ELISA: mrecFas 100 ng adsorbed, hFasLigand-Flag 30 ng, FLINT 500 ng; signal is FasL bound to Fas.
Series [6] shares this target. The experiment in a line: competition ELISA: mrecFas 100 ng adsorbed, hFasLigand-Flag 30 ng, FLINT 1 ng; signal is FasL bound to Fas.
For series [7] the target is unchanged. The series can be described thus: competition ELISA: mrecFas 100 ng adsorbed, hFasLigand-Flag 30 ng, FLINT 100 ng; signal is FasL bound to Fas.
In series [8] the target is FasL expressed by anti-CD3-activated Jurkat cells.
The target is the same in series [9]. The source holds these as a separate data set.
The target in series [10] is hFasLigand (Flag-tagged) (human) (UniProt P48023). The experiment in a line: competition ELISA: mrecFas 100 ng adsorbed, hFasLigand-Flag 30 ng, FLINT 50 ng; signal is FasL bound to Fas.
In series [11] the target is soluble Fas L (recombinant FasL).
The target of series [12] is hFasLigand (Flag-tagged) (human) (UniProt P48023). The series can be described thus: competition ELISA: mrecFas 100 ng adsorbed, hFasLigand-Flag 30 ng, FLINT 5 ng; signal is FasL bound to Fas.
The conditions of series [13]: mouse, in vivo. The text has this:
These animals are also useful in further delineating useful treatment protocols for the conditions set out above. Transgene construction. […] The 5' primer, [NT], a BglII restriction site and the 3' primer, [NT], contained an SpeI restriction enzyme site. These were used to amplify the entire FLINT and FLAG coding region. The amplified 1.1 kb fragment was ligated into the multiple cloning site of plasmid […]2 generating plasmid […] (6.7 kb). See Fox et al, Eur. J. Pharmacol. 308:195 (1996). The FLINT gene fragment was excised from […] by BglII and SpeI digestion and gel-purified. This fragment then was blunted with Klenow enzyme and ligated into the Klenow-blunted MluI site of plasmid pLIV.7, provided by John Taylor of the J. David Gladstone Institutes. See Fan et al., Proc. Nat'l Acad. Sci. 91:8724 (1994). Resultant plasmid […] also contains the apo E gene promoter/5' flanking region and an hepatic enhancer sequences called the “hepatic control region” (HCR). […] Broad tissue expression was detected in line 6494 progeny by Northern blot, RT-PCR (TaqMan), Western blot and immunohistochemical analysis and was highest in the liver and kidney. High levels of FLINT protein were detected in the circulation of line 6494 mice by ELISA assay; founder level=490 ng/ml; progeny levels ranged from 285-1360 ng/ml (n=6). No endogenous FLINT was detected by these analyses.

Series [14] has as its target murine FasL of anti-CD3-stimulated mouse T cell hybridoma cells (LTT cells) (mouse) (UniProt P41047).
For series [15] the target is unchanged. The source holds these as a separate data set.

Sequence of murine FasL of anti-CD3-stimulated mouse T cell hybridoma cells (LTT cells) (mouse) (P41047 whole entry): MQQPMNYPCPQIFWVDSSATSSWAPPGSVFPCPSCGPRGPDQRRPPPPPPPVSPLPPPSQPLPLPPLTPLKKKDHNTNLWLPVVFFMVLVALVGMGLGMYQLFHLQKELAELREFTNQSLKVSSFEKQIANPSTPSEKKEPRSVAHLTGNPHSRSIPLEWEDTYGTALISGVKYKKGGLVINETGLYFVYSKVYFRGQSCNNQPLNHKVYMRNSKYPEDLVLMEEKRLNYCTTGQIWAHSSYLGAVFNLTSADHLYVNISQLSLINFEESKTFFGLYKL

B1: FasL: Fas ligand; hFasLigand (Flag-tagged) in ELISA, soluble Fas L in cell assays (protein)
chain: QLFHLQKELAELRESTSQMHTASSLEKQIGHPSPPPEKKELRKVAHLTGKSNSRSMPLEWEDTYGIVLLSGVKYKKGGLVINETGLYFVYSKVYFRGQSCNNLPLSHKVYMRNSKYPQDLVMMEGKMMSYCTTGQMWARSSYLGAVFNLTSADHLYVNVSELSLVNFEESQTFFGLYKL
Take B1: the “OD, 405 nM” value in series [1] (FasL 1 ng) is “.1”; in [1] (FasL 5 ng), “.2”; in series [1] (FasL 10 ng), “.3”; in series [1] (FasL 50 ng) it was “.7”; in [1] (FasL 100 ng) it was 1.2; in [1] (FasL 500 ng), 1.6. Besides, the “bone marrow cell count” value in series [2] is listed as 3,000 ×1000. In series [3], the “Cell apoptosis (Annexin V and PI, FACS)” value was found to be 67.39.

B2: mFLINT (mature human FLINT, non-Flagged, made according to Examples 8 and 9) (receptor)
chain: VAETPTYPWRDAETGERLVCAQCPPGTFVQRPCRRDSPTTCGPCPPRHYTQFWNYLERCRYCNVLCGEREEEARACHATHNRACRCRTGFFAHAGFCLEHASCPPGAGVIAPGTPSQNTQCQPCPPGTFSASSSSSEQCQPHRNCTALGLALNVPGSSSHDTLCTSCTGFPLSTRVPGAEECERAVIDFVAFQDISIKRLQRLLQALEAPEGWGPTPRAGRAALQLKLRRRLTELLGAQDGALLVRLLQALRVARMPGLERSVRERFLPVH
modifications: glycosylated
In the case of B2, the OD, 405 nM is 0.36 OD, 405 nM in series [4]; 0.06 OD, 405 nM in [5]; 0.36 OD, 405 nM in series [6]; 0.18 OD, 405 nM in [7]; 0.28 OD, 405 nM in series [10]; 0.36 OD, 405 nM in series [12]. In addition, in [8], the apoptosis of Jurkat cells, positive staining with Annexin V (FACS) stood at 18.7. Besides, the apoptosis of Jurkat cells (dose series of mFLINT) in [9] turned out to be 14.7. The apoptosis of Jurkat cells, Annexin V and PI (FACS) in series [11] is 3.32.

B3: FLINT protein: FLINT-FLAG expressed from Apo E promoter/HCR transgene in line 6494 transgenic mice (protein)
chain: VAETPTYPWRDAETGERLVCAQCPPGTFVQRPCRRDSPTTCGPCPPRHYTQFWNYLERCRYCNVLCGEREEEARACHATHNRACRCRTGFFAHAGFCLEHASCPPGAGVIAPGTPSQNTQCQPCPPGTFSASSSSSEQCQPHRNCTALGLALNVPGSSSHDTLCTSCTGFPLSTRVPGAEECERAVIDFVAFQDISIKRLQRLLQALEAPEGWGPTPRAGRAALQLKLRRRLTELLGAQDGALLVRLLQALRVARMPGLERSVRERFLPVH
modifications: glycosylated
notes: FLINT-FLAG expressed from Apo E promoter/HCR transgene in line 6494 transgenic mice
B3: in series [13], the histopathologic findings result is “No significant histopathologic findings” and the observable abnormalities entry was “no observable abnormalities”.

B4: solubleFas (sFas)(FasFc, mouse) (Fc fusion)
chain: QGTNSISESLKLRRRVRETDKNCSEGLYQGGPFCCQPCQPGKKKVEDCKMNGGTPTCAPCTEGKEYMDKNHYADKCRRCTLCDEEHGLEVETNCTLTQNTKCKCKPDFYCDSPGCEHCVRCASCEHGTLEPCTATSNTNCRKQSPRNR
In series [14], B4 returned an MTS cytotoxicity assay, absorbance at 490 nm (absorbance at 490 nm) of 1.46. The molecule further returned an SFas % Annexin V Positive in [15] of 56.7%.
